Values joined by “and” are separate entries in the source; they are usually repeats but may differ in a detail not shown here. Equal entries are not always repeated.

The results in this text go back to patent JP2019156807A.

The assay deals with 変性ヒトCD26(ホルマリン固定パラフィン包埋した細胞・組織中、又はSDS/DTT煮沸処理した細胞溶解物中のヒトCD26) (human) (UniProt P27487). Kind of assay: immunostaining of FFPE samples, titration of purified antibody (data not shown).
Sequence of UniProt P27487 (P27487 whole entry): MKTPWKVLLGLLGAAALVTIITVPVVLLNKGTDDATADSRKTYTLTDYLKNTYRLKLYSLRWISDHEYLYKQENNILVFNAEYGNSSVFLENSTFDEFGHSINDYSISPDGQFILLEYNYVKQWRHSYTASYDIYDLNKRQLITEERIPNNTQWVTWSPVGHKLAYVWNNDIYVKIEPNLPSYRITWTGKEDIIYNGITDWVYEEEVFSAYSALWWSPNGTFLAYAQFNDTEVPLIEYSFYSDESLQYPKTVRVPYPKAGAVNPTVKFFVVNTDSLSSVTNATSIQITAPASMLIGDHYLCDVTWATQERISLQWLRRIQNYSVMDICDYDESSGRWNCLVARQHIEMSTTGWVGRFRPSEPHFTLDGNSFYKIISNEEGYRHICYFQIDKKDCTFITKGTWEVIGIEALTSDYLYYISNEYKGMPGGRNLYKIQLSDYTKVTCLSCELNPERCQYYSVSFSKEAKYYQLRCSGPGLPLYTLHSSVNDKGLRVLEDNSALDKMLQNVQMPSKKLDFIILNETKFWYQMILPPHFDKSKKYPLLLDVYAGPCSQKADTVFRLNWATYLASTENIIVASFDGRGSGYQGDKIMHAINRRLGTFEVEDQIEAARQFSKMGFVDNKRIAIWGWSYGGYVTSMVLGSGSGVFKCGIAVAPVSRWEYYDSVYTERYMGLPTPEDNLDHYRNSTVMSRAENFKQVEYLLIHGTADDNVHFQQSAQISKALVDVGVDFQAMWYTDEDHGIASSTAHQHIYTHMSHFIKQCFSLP

B1: 抗ヒトCD26モノクローナル抗体U16−3 (antibody, V domains shown)
VH: EVKLVESGGGLVQPGGSLKLSCATSGFTFSDFYMYWVRQTPEKRLEWVAYISKGGGTTSYPDTVKGRFTISRDNAKNTLYLQLSRLKAEDSAMYYCARRMDYWGQGTSVTVSS
VL: DVQMNQSPSSMYASLGERVTITCKASQDINSYLSWFQQKPGKSPKTLIYRANRLVDGVPSRFSGSGSGQDYSLTISSLDYEDMGIYYCLQYDEFPLTFGAGTKLELK
For the molecule B1, the 免疫染色の最適濃度 was 0.1 μg/mL and 0.2 μg/mL.

B2: 抗ヒトCD26モノクローナル抗体U38−8 (antibody, V domains shown)
VH: EVKLVESGGGLVQPGGSLKLSCATSGFTFSDFYMYWVRQTPEKRLEWVAYISKGGGTTSYPDTVKGRFTISRDNAKNTLYLQLSRLKAEDSAMYYCARRMDYWGQGTSVTVSS
VL: DVVVTQTPLSLPVSLGDQASISCRSSQGLEHSSGNTYLHWYLQRPGQSPKLLIYKVSNRFSGVPDRFSGSGSGTDFTLKISRVEAEDLGVYFCSQSTPVPTWTFGGGTKLEIK
Regarding B2, the 免疫染色の最適濃度 was determined as 0.5 μg/mL.
